Test in all cases: co-IP
Experiment [1] addresses PBP1a‐F (Streptococcus pneumoniae D39).
The target of experiment [2] is T1, RodZ‐L‐FLAG^3 (Streptococcus pneumoniae D39).
T1 sequence (Q8DMX7 1-276, looked up): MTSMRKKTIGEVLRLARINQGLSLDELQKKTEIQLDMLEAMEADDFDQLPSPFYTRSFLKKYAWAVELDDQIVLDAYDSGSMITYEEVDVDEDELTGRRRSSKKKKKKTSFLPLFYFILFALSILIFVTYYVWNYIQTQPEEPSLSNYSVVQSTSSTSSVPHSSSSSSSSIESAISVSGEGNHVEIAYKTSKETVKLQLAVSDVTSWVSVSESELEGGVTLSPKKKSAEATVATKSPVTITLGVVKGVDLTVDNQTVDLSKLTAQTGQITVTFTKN

Experiment [3] addresses MpgA‐F (Streptococcus pneumoniae D39).
Experiment [4] has as its target MreC‐L‐F3 (Streptococcus pneumoniae D39) (UniProt Q8DMY2).
For experiment [5], the target named is T2, RodZ‐FLAG (Streptococcus pneumoniae D39).
T2 sequence (Q8DMX7 1-276, looked up): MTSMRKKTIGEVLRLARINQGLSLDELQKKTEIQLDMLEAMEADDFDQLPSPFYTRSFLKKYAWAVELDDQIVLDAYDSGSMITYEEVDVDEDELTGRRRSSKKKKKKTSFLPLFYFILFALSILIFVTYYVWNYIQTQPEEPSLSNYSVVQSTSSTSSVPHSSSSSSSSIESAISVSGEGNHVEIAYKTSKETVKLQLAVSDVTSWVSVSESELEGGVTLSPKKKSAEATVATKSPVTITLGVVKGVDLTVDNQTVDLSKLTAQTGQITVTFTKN

In experiment [6] the target is KhpB‐L‐F3 (Streptococcus pneumoniae D39) (UniProt Q8CY87).
A further experiment concerns the target T3, MreC‐L‐F3 (Streptococcus pneumoniae D39, UniProt Q8DMY2 1-272).
T3 sequence (looked up): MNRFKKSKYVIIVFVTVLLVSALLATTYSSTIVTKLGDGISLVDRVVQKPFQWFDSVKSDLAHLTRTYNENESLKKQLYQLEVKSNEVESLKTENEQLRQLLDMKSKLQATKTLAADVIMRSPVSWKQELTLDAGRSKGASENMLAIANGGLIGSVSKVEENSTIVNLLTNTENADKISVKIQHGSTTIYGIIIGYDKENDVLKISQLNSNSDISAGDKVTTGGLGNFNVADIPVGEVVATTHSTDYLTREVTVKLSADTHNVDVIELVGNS

For bPBP2b (natural protein), the ratio of prey protein band/background in experiment [1] worked out at 13; in experiment [2], 63; in experiment [3] it was 13; in experiment [4] it was 47; in experiment [5], 26.

Consider MpgA‐HA (natural protein), for which the ratio of prey protein band/background in experiment [2] is 8.6.

Take bPBP2x (natural protein): the ratio of prey protein band/background in experiment [1] is 15; in experiment [2], 8.7; in experiment [3] it was 12; in experiment [4] it was 10; in experiment [5], 4.8.

RodZ‐HA^3 (natural protein): the ratio of prey protein band/background in experiment [1] worked out at 8.6; in experiment [6], 1.4.

On to aPBP1a (natural protein), for which the ratio of prey protein band/background in experiment [2] turned out to be 61; in experiment [3], 22; in experiment [4], 41; in experiment [5], 11.

As to StkP (natural protein), the ratio of prey protein band/background in experiment [1] amounted to 28; in experiment [2], 23; in experiment [3], 34; in experiment [4], 14.

As to GpsB (natural protein), the ratio of prey protein band/background came out at 16 in experiment [1]; 51 in experiment [2]; 38 in experiment [3]; 26 in experiment [4]; 24 in experiment [5].

“FtsA (from UniProt A0A0H2ZPT5 1-457) (natural protein)”: the ratio of prey protein band/background in experiment [3] is 4.5.

As to “FtsW‐L‐GFP (from UniProt A0ACD7PRK7 1-409) (natural protein)”, in experiment [2], the ratio of prey protein band/background is 4.5.

B1: aPBP2a (natural protein, UniProt A0A0H2ZMF9 1-731, looked up)
chain: MKLDKLFEKFLSLFKKETSELEDSDSTILRRSRSDRKKLAQVGPIRKFWRRYHLTKIILILGLSAGLLVGIYLFAVAKSTNVNDLQNALKTRTLIFDREEKEAGALSGQKGTYVELTDISKNLQNAVIATEDRSFYKNDGINYGRFFLAIVTAGRSGGGSTITQQLAKNAYLSQDQTVERKAKEFFLALELSKKYSKEQILTMYLNNAYFGNGVWGVEDASKKYFGVSASEVSLDQAATLAGMLKGPELYNPLNSVEDSTNRRDTVLQNMVAAGYIDKNQETEAAEVDMTSQLHDKYEGKISDYRYPSYFDAVVNEAVSKYNLTEEEIVNNGYRIYTELDQNYQANMQIVYENTSLFPRAEDGTFAQSGSVALEPKTGGVRGVVGQVADNDKTGFRNFNYATQSKRSPGSTIKPLVVYTPAVEAGWALNKQLDNHTMQYDSYKVDNYAGIKTSREVPMYQSLAESLNLPAVATVNDLGVDKAFEAGEKFGLNMEKVDRVLGVALGSGVETNPLQMAQAYAAFANEGLMPEAHFISRIENASGQVIASHKNSQKRVIDKSVADKMTSMMLGTFTNGTGISSSPADYVMAGKTGTTEAVFNPEYTSDQWVIGYTPDVVISHWLGFPTTDENHYLAGSTSNGAAHVFRNIANTILPYTPGSTFTVENAYKQNGIAPANTKRQVQTNDNSQTDDNLSDIRGRAQSLVDEASRAISDAKIKEKAQTIWDSIVNLFR
As for B1, in the experiment with MreC‐L‐F3, the “ratio of prey protein band/background” value worked out at 20.

B2: DivIVA (natural protein, UniProt Q8CWP9 1-262, looked up)
chain: MPITSLEIKDKTFGTRFRGFDPEEVDEFLDIVVRDYEDLVRANHDKNLRIKSLEERLSYFDEIKDSLSQSVLIAQDTAERVKQAAHERSNNIIHQAEQDAQRLLEEAKYKANEILRQATDNAKKVAVETEELKNKSRVFHQRLKSTIESQLAIVESSDWEDILRPTATYLQTSDEAFKEVVSEVLGEPIPAPIEEEPIDMTRQFSQAEMEELQARIEVADKELSEFEAQIKQEVETPTPVVSPQVEEEPLLIQLAQCMKNQK
As to B2, the “ratio of prey protein band/background” value with MreC‐L‐F3 came to 4.3; in experiment [1], 6.8; in experiment [2], 18; in experiment [3], 53; in experiment [5] it was 7.9.

B3: MreC (natural protein)
chain: MNRFKKSKYVIIVFVTVLLVSALLATTYSSTIVTKLGDGISLVDRVVQKPFQWFDSVKSDLAHLTRTYNENESLKKQLYQLEVKSNEVESLKTENEQLRQLLDMKSKLQATKTLAADVIMRSPVSWKQELTLDAGRSKGASENMLAIANGGLIGSVSKVEENSTIVNLLTNTENADKISVKIQHGSTTIYGIIIGYDKENDVLKISQLNSNSDISAGDKVTTGGLGNFNVADIPVGEVVATTHSTDYLTREVTVKLSADTHNVDVIELVGNS
Take B3: the ratio of prey protein band/background was determined as 19 in experiment [1], 100 in experiment [2], 22 in experiment [3] and 24 in experiment [5].

The record behind these values is PMC9804626 (Molecular Microbiology, 2022).
